From patent publication US20210052637A1 (CONSIGLI NAZIONALE DELLE RICERCHE, published 2021)

Biological target: T1, folate receptor Frα (UniProt P15328 25-234, limits assumed)
T1 construct: whole, on cells; also called α-FR; folate receptor alpha
Experiment: flow cytometry on IGROV-1, KB and A431-tFR cells; 0.025 mg/mL antibody fragment on nanocubes, 4° C., 1 hour; detected with anti-myc primary antibody and Alexa-488 secondary antibody
Description: The A431-tFR and A431-MOCK cells provided by the IRCSS Foundation, National Cancer Institute, Milan, Italy, were grown in the modified Dulbecco culture medium (DMEM, Merck, Kenilworth, USA). IGROV-1 cells (ATCC, UK) were cultured in RPMI-1640 (RPMI-1640, Merck, Kenilworth, USA). The KB cells (ATCC, UK) were cultured in RPMI-1640 without folic acid (RPMI-1640 without folic acid, Merck, Kenilworth, USA). All culture media were added with 10% inactivated fetal bovine serum (FBS), 1% penicillin-streptomycin and 1% glutamine at 37° C., 95% humidity with 5% CO2. The cells were divided every 3-4 days before reaching confluence.
In these experiments, the functionalized nanocubes of the invention comprising the antibody fragment in a quantity of 0.025 mg/mL were incubated in PBS at 4° C. for 1 hour with 5×10⁵ cells of the cell lines indicated above. As a negative control, the non-functionalised nanocubes with polymer coating were used. Then, after three washes, the cells were incubated for 1 hour at 4° C. with the primary antibody that binds to the myc sequence of the C4 antibody fragment. Following a wash in PBS a secondary antibody conjugated to the fluorescent probe Alexa-488 was added to the cells, capable of binding the Fc portion of the primary antibody.

T1 sequence (P15328 25-234 limits assumed): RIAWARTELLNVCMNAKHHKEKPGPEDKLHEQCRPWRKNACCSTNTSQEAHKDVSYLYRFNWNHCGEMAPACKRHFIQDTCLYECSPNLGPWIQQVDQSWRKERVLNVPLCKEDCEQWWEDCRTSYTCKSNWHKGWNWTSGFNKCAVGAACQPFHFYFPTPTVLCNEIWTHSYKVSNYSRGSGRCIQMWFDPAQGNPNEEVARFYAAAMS

B1: single chain variable fragment of human antibody C4 (C4 scFv), attached to iron oxide nanocubes (scFv)
scFv: NVQLVESGGGLVQPGRSLRLSCTTSGFTFGDYAMIWARQAPGKGLEWVSSISSSSSYIYYADSVKGRFTISRDNAKNSLYLQMNSLRAEDTAVYYCARERYDFWSGMDVWGKGTTVTVSSGGGGSGGGGSGGSAQSALTQPASVSGSPGQSITISCTGTSSDVGSYNLVSWYQQHPGKAPKLMIYEGSKRPSGVSNRFSGSKSGNAASLTISGLQAEDEADYYCQSYDSSLSVVFGGGTKLTVLGAAAHHHHHHGAAEQ
modifications: histidine tag complexed to Ni2+ of PEG-NTA-Ni linker on the polymer-coated iron oxide nanocube
notes: In the assays the scFv was not free; It was held on polymer-coated cubic iron oxide nanoparticles through its histidine tag and PEG-NTA-Ni, with or without PEG-oxaliplatin; also called scFvC4; C4 antibody fragment
Does B1 bind?
Result: binds
